Reference: patent US20200332006A1 (ULTRAHUMAN NINE, published 2020)
Changes are numbered by the printed parent chain. Names and notes keep the numbering of the source. Blank lines part the entries; values can stand above or below the molecule they belong to.

Columns and labels:
[1] = molecular target: T1, human LSAMP, expressed on HEK293 cells (human, UniProt Q13449 29-315); test: flow cytometry on transfected HEK293 cells, no primary antibody
T1 construct: also called BC033803
T1 sequence: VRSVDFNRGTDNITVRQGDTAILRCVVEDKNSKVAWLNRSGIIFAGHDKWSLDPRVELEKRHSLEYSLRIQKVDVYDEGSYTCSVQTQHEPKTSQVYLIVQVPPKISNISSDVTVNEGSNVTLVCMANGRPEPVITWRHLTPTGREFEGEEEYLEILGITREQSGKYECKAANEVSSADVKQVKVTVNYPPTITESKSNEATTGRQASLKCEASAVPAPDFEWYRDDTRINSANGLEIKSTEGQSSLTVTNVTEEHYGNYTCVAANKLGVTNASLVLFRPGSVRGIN

[2] = molecular target: T2, human BTN2A1, expressed on HEK293 cells (human, UniProt Q7KYR7 29-527); test: as above
T2 construct: also called NM_007049
T2 sequence: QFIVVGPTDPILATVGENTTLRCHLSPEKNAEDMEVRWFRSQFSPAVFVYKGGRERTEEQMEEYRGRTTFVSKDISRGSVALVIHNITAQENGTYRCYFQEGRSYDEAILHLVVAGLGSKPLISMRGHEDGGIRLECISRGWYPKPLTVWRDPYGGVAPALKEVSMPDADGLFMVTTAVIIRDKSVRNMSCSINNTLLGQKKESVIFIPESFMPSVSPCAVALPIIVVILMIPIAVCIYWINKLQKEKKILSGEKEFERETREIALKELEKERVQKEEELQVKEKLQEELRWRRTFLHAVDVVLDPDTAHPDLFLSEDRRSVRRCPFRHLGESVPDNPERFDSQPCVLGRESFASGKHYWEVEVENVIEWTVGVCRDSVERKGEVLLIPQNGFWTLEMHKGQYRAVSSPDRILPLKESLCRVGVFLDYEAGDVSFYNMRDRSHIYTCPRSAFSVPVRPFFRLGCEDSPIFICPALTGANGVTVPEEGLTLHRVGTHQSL

[3] = molecular target: T3, human CD20, expressed on HEK293 cells (human, UniProt P11836 1-297); test: as above
T3 construct: whole, on cells
T3 sequence (looked up): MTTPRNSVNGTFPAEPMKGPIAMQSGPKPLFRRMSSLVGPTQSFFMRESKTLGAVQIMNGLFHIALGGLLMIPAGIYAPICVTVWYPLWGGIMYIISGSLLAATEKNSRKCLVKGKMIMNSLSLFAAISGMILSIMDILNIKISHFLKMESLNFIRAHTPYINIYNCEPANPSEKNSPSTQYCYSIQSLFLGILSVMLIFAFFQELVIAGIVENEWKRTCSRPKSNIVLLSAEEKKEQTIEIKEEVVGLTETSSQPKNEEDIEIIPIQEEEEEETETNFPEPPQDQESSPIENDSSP

[4] = molecular target: T4, biotinylated human PD1-His/AviTag (human, UniProt Q15116 25-170, biotinylated (AviTag)); test: AlphaScreen epitope competition; competitor mu317 IgG on biotinylated monomeric human PD1
T4 construct: also called biotinylated monomeric human PD1
Protocol: (§1) The AlphaScreen assay (Perkin Elmer) was performed in a 25 μl final volume in 384-well white microtiter plates (Greiner). The reaction buffer contained 1×PBS pH 7.3 (Oxoid, Cat. nr. BR0014G) and 0.05% (v/v) Tween® 20 (Sigma, Cat. nr. P9416). Purified IgG samples were titrated in three fold serial dilutions starting at 500 nM final concentration and incubated with biotinylated human PD1-His/AviTag at 0.6 nM final concentration for 20 minutes at room temperature. […] Followed by addition of the Streptavidin Donor beads at 20 μg/ml (final concentration) and incubation for 30 minutes at room temperature. The emission of light was measured in the EnVision multilabel plate reader (Perkin Elmer) and analysed using the EnVision manager software. Values were reported as Counts Per Second (CPS) and corrected for crosstalk.

[5] = molecular target: T1, human LSAMP, expressed on HEK293 cells; test: flow cytometry on transfected HEK293 cells, 2 ug/ml IgG
Protocol: (§2) FIG. 11. […] Analyses of binding specificity were performed on HEK293 cells transiently transfected with plasmids encoding either human PD1, human BTN2A1, human LSAMP, human CD20 or ZS green marker only. Each antibody was used in staining at […] concentration and histograms are indicated per antibody in this figure.
(§3) Human cell membrane receptor proteome arrays were performed at Retrogenix Ltd. Primary screens: 2 μg/ml of each antibody was screened for binding against fixed HEK293 cells/slides expressing 5528 human plasma membrane and tethered secreted proteins individually. […] Antibody binding was detected using AF647 fluorescent secondary anti-human IgG1 antibody. Primary hits (duplicate spots) were identified by analysing fluorescence (AF647 and ZsGreen1) on ImageQuant. Confirmation/specificity screens: Expression vectors encoding ZsGreen1 only, or ZsGreen1 and CD20, PD1, BTN2A1, or LSAMP were transfected into human HEK293 cells. […] Cells were washed, and incubated with the same AF647 anti-human IgG Fc detection antibody as used in the cell microarray screens. Cells were again washed, and analysed by flow cytometry using an Accuri flow cytometer (BD). A 7AAD live/dead dye was used to exclude dead cells, and ZsGreen1-positive cells (i.e. transfected cells) were selected for analyses.

[6] = molecular target: T2, human BTN2A1, expressed on HEK293 cells; test: as above
Protocol: as §2, §3

[7] = molecular target: T3, human CD20, expressed on HEK293 cells; test: as above
Protocol: as §2, §3

[8] = molecular target: T2, human BTN2A1, expressed on HEK293 cells; test: flow cytometry on live transfected HEK293 cells
Protocol: as §2, §3

[9] = molecular target: T5, human PD1 human Fc tagged recombinant protein (human, UniProt Q15116 25-170); test: direct titration ELISA, IgG1null on coated PD1-Fc
T5 construct: also called human PD1-Fc; huPD1
Protocol: (§4) Binding and cross-reactivity of the lead panel to the recombinant proteins was initially assessed by binding ELISA. The human PD1 human Fc tagged recombinant protein and the cynomolgus monkey PD1 human Fc tagged recombinant protein were coated to the surface of MaxiSorp™ flat-bottom 96 well plate at 1 μg/ml. The Fab samples were applied at 1:5 dilution in 1% Skimmed Milk/1×PBS; 1 h at RT; 100 μl/well. IgGs were titrated in two fold serial dilutions starting from 500 nM to 0.98 nM and allowed to bind to the coated antigens. The Fabs were detected using mouse anti-c-myc antibody followed by donkey anti-mouse IgG conjugated to horseradish peroxidase. The IgGs were detected using the mouse anti-human IgG conjugated to horseradish peroxidase. Binding signals were visualized with 3,3′,5,5′-Tetramethylbenzidine Substrate Solution (TMB) and the absorbance measured at 450 nm.

[10] = molecular target: T6, cynomolgus monkey PD1 human Fc tagged recombinant protein (cynomolgus monkey, UniProt Q15116 25-170 (human entry), limits assumed); test: direct titration ELISA, IgG1null on coated PD1-Fc
T6 construct: also called cyno PD1-Fc; cyPD1
T6 chain: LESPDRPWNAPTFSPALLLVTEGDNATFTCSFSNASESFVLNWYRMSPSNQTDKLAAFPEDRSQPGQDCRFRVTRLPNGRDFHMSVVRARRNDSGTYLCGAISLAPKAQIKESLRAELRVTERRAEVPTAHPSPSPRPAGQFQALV
Protocol: as §4

[11] = molecular target: T4, biotinylated human PD1-His/AviTag; test: AlphaScreen epitope competition; titrated IgG against mu317 IgG (parental IgG, 0.3 nM) on biotinylated monomeric human PD1
Protocol: as §1

[12] = molecular target: T6, cynomolgus monkey PD1 human Fc tagged …; test: direct titration ELISA, IgG1null on coated PD1-Fc (reference antibody)
Protocol: as §4

T4 sequence (Q15116 25-170 limits assumed): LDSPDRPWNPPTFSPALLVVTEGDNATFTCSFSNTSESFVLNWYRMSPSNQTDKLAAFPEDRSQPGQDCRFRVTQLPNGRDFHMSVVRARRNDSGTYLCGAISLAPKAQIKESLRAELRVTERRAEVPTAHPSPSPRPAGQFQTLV
T5 sequence (Q15116 25-170 limits assumed): as above

fold fluorescence change versus mock (ZSgreen only) cells [1]: 1.5 fold
fold fluorescence change versus mock (ZSgreen only) cells [2]: 1.1 fold
fold fluorescence change versus mock (ZSgreen only) cells [3]: 0.9 fold
Molecule: AF647 anti-human IgG Fc detection antibody alone

IC50 [4]: 0.39 nM
fold fluorescence change versus mock (ZSgreen only) cells [5]: 7.1 fold
fold fluorescence change versus mock (ZSgreen only) cells [6]: 1.1 fold
fold fluorescence change versus mock (ZSgreen only) cells [7]: 0.9 fold
binding result [8]: no binding (tested: 2 ug/ml)
B1: Antibody MH8, IgG1null format (antibody, V domains shown)
VH: EVQLVESGGGLVQPGGSLRLSCAASGFTFSSYGMSWVRQAPGKGLEWVANIWQDGSTKYVDSVKGRFTISRDNAKNSLYLQMNSLRAEDTAVYYCARAYGNYWYIDRWGQGTTVTVSS
VL: DIVMTQSPDSLAVSLGERATINCKSSQSVTNDVAWYQQKPGQPPKLLINYAYHRFTGVPDRFSGSGYGTDFTLTISSLQAEDVAVYYCHQAYSTPYTFGQGTKLEIK
notes: Tested as IgG1null (human IgG1 L234A, L235A, G237A) with human Ckappa; also called clone MH8

binding result [9]: binds
binding result [10]: binds
B2: Antibody 09C06, IgG1null format (antibody, V domains shown)
VH: B1 VH with T28S, S35H, K58N
VL: B1 VL with T30S, Y52S
notes: Library-derived clone; Tested as IgG1null (human IgG1 L234A, L235A, G237A) with human Ckappa; also called clone 09C06

IC50 [4]: 0.63 nM
fold fluorescence change versus mock (ZSgreen only) cells [5]: 1.9 fold
fold fluorescence change versus mock (ZSgreen only) cells [6]: 1.2 fold
fold fluorescence change versus mock (ZSgreen only) cells [7]: 1.1 fold
binding result [8]: no binding (tested: 2 ug/ml)
B3: Antibody MH4, IgG1null format (antibody, V domains shown)
VH: B1 VH with T28S, F29L, N50V, K58N
VL: B1 VL
notes: Tested as IgG1null (human IgG1 L234A, L235A, G237A) with human Ckappa; also called clone MH4

IC50 [4]: 0.624 nM
fold fluorescence change versus mock (ZSgreen only) cells [5]: 4.1 fold
fold fluorescence change versus mock (ZSgreen only) cells [6]: 1.3 fold
fold fluorescence change versus mock (ZSgreen only) cells [7]: 1.1 fold
B4: Antibody MH12, IgG1null format (antibody, V domains shown)
VH: B1 VH with T57E
VL: B1 VL
notes: Tested as IgG1null (human IgG1 L234A, L235A, G237A) with human Ckappa; also called clone MH12

IC50 [11]: 0.37 nM
binding result [12]: binds
B5: Mu317 murine anti-PD1 v-domains, produced in human IgG1null format (antibody, V domains shown)
VH: QVQLKESGPGLVAPSKNLSITCTVSGFSLTSYGVHWIRQPPGKGLEWLGVIWAGGSTNYNSALMSRLSISKDNSRSQVFLRMNSLQTDDTAMYYCARAYGNYWYIDVWGAGTTVTVSS
VL: DIVMTQTPKFLLVSAGDRVTITCKASQSVSNDVAWYQQKPGQSPKLLINYAFHRFTGVPDRFTGSGYGTDFIFTISTVQAEDLAVYFCHQAYSSPYTFGGGTKLEMK
notes: Tested as IgG1null (human IgG1 with L234A, L235A, G237A) with human Ckappa; also called Mu317 IgG1; parental IgG
